Measured values reported in patent US20210322564A1 (ADC THERAPEUTICS, published 2021).

Target: T1, CD19 (human, UniProt P15391 20-556)
T1 sequence (looked up): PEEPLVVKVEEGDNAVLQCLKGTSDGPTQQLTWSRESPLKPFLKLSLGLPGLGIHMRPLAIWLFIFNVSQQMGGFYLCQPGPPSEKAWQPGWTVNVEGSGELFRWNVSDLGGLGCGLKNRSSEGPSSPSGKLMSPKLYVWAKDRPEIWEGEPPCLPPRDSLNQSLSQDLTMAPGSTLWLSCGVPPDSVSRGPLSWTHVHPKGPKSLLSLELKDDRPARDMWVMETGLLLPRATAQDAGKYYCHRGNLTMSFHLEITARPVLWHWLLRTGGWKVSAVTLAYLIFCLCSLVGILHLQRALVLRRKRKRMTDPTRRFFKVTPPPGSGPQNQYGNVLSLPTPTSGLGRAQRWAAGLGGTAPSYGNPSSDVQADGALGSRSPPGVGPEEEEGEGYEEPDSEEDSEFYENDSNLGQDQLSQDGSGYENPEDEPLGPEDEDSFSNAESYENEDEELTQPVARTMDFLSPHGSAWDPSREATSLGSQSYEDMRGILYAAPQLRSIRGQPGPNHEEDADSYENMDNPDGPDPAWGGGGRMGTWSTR
Assay: cell-based or functional assay

IC50, MTT proliferation assay, 96 h exposure, median over 48 B-cell lymphoma cell lines: 4 pM
B1: ADCx19 (antibody, V domains shown)
VH: QVQLVQPGAEVVKPGASVKLSCKTSGYTFTSNWMHWVKQAPGQGLEWIGEIDPSDSYTNYNQNFQGKAKLTVDKSTSTAYMEVSSLRSDDTAVYYCARGSNPYYYAMDYWGQGTSVTVS
VL: EIVLTQSPAIMSASPGERVTMTCSASSGVNYMHWYQQKPGTSPRRWIYDTSKLASGVPARFSGSGSGTSYSLTISSMEPEDAATYYCHQRGSYTFGGGTKLEIK
modifications: pyrrolobenzodiazepine (PBD) dimer warhead attached via a cleavable linker, DAR 2+/-0.3; attachment residues not stated
